For this test, the target named is T1, Human neuroglobin (human, UniProt Q9NPG2 1-151).
T1 sequence (looked up): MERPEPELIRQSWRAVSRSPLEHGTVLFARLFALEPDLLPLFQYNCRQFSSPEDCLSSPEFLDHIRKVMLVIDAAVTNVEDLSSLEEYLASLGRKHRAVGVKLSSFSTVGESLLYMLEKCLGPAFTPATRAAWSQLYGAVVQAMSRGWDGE
In words: ITC. In general terms: ITC needs no label: the signal is the heat of the interaction.

Here are results for 1 molecule from publication PMC8992277 (ACS Omega, 2022).

Broadly, the Kd is the free concentration of one partner at which half of the binding sites on the other are occupied at equilibrium, for simple one-to-one binding. Lower therefore signals tighter binding.

B1: Human cytochrome c I81N variant (natural protein)
chain: not shown
modifications: heme c covalently linked to the peptide chain via two thioether bonds through the CXXCH motif
As for B1, the Ka stood at 5300 M⁻¹; the affinity, expressed as Kd, was 189 µM; the “dH, fold of that of WT hCyt c binding to Ngb” value is about 6 fold.
